Ratio to parent data for six variants are collected here from paper PMC5850324, “Interactions between the Hepatitis C Virus Nonstructural 2 Protein and Host Adaptor Proteins 1 and 4 Orchestrate Virus Release” (mBio, 2018).

B1: GLuc2-NS2 (hepatitis C virus nonstructural 2 protein, wild type) [hepatitis C virus (J6/JFH genome)] / GLuc1-tagged μ subunit of the AP-4 complex [not stated] (parent complex)
chain 1: YDASVHGQIGAALLVLITLFTLTPGYKTLLSRFLWWLCYLLTLAEAMVQEWAPPMQVRGGRDGIIWAVAIFCPGVVFDITKWLLAVLGPAYLLKGALTRVPYFVRAHALLRMCTMVRHLAGGRYVQMVLLALGRWTGTYIYDHLTPMSDWAANGLRDLAVAVEPIIFSPMEKKVIVWGAETAACGDILHGLPVSARLGREVLLGPADGYTSKGWSLL
chain 2: MISQFFILSSKGDPLIYKDFRGDSGGRDVAELFYRKLTGLPGDESPVVMHHHGRHFIHIRHSGLYLVVTTSENVSPFSLLELLSRLATLLGDYCGSLGEGTISRNVALVYELLDEVLDYGYVQTTSTEMLRNFIQTEAVVSKPFSLFDLSSVGLFGAETQQSKVAPSSAASRPVLSSRSDQSQKNEVFLDVVERLSVLIASNGSLLKVDVQGEIRLKSFLPSGSEMRIGLTEEFCVGKSELRGYGPGIRVDEVSFHSSVNLDEFESHRILRLQPPQGELTVMRYQLSDDLPSPLPFRLFPSVQWDRGSGRLQVYLKLRCDLLSKSQALNVRLHLPLPRGVVSLSQELSSPEQKAELAEGALRWDLPRVQGGSQLSGLFQMDVPGPPGPPSHGLSTSASPLGLGPASLSFELPRHTCSGLQVRFLRLAFRPCGNANPHKWVRHLSHSDAYVIRI

Variants of B1 are the subject of this test. Description: PCA (protein-fragment complementation assay); parent: 1; read off a plot.
In the case of chain 1 L217A, the ratio to parent is around 0.52.

Turning to chain 1 L203A, the ratio to parent was around 0.62.

With chain 1 D207A, the ratio to parent was around 0.6.

As for chain 1 L202A, the ratio to parent was around 0.57.

Regarding chain 1 L216A, the ratio to parent is around 0.56.

Turning to chain 1 E200A, the ratio to parent is around 1.
